The text below walks through data of article PMC5225424.

The target in the assay is GmMYB176-YFP (soybean (Glycine max)). The assay is described as follows: FRET or BRET; FRET by acceptor bleaching, CFP as donor and YFP as acceptor, co-expressed in N. benthamiana leaf epidermal cells; average of multiple samples (n > 15).

With “GmCYP1-CFP (from UniProt Q8W171 1-172) (natural protein)”, the FRET efficiency was 23.8%.
